Measurements as given in the supplement of paper PMC10065799, “High-throughput profiling of sequence recognition by tyrosine kinases and SH2 domains using bacterial peptide display” (eLife, 2023).

Key:
[1] = biological target: MERTK (UniProt Q12866); assay: phosphorylation enrichment, bacterial display (enrichment ratio); higher = better substrate or ligand; peptides without Tyr show the background
[2] = system: c-Abl (mouse); assay: as above
[3] = biological target: Jak2 (UniProt O60674); assay: as above
[4] = biological target: Hck (UniProt P08631); assay: as above
[5] = biological target: Fes (UniProt P07332); assay: as above
[6] = biological target: EPHB1 (UniProt P54762); assay: as above
[7] = biological target: EPHB2 (UniProt P29323); assay: as above
[8] = system: AncSZ; assay: as above
[9] = system: c-Src; assay: as above
[10] = biological target: FGFR3 (UniProt P22607); assay: as above
[11] = biological target: Fyn (UniProt P06241); assay: as above
[12] = biological target: FGFR1 (UniProt P11362); assay: as above
[13] = system: Fer (mouse); assay: as above
[14] = biological target: c-Src SH2; assay: SH2 binding enrichment of the phosphorylated peptide, bacterial display (enrichment ratio); higher = better substrate or ligand; peptides without Tyr show the background
[15] = biological target: SHP2-C SH2; assay: as above
[16] = biological target: Grb2 SH2 (UniProt P62993); assay: as above
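Throughout, for SH2 binding enrichment of the phosphorylated peptide, bacterial display: peptide library displayed on the E. coli surface as eCPX fusions, selected cells deep-sequenced, score is each peptide's frequency after selection divided by its frequency in the input.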
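Throughout, for phosphorylation enrichment, bacterial display: 11-residue human phosphosite peptides and single-mutation variants displayed on the E. coli surface, counted by deep sequencing, each peptide's frequency after selection divided by its frequency in the unselected input library; frequency after pTyr selection over input frequency; kinase dosed for 20-30% of maximal phosphorylation in three min.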

Sequence of EPHB2 (P29323 whole entry, looked up): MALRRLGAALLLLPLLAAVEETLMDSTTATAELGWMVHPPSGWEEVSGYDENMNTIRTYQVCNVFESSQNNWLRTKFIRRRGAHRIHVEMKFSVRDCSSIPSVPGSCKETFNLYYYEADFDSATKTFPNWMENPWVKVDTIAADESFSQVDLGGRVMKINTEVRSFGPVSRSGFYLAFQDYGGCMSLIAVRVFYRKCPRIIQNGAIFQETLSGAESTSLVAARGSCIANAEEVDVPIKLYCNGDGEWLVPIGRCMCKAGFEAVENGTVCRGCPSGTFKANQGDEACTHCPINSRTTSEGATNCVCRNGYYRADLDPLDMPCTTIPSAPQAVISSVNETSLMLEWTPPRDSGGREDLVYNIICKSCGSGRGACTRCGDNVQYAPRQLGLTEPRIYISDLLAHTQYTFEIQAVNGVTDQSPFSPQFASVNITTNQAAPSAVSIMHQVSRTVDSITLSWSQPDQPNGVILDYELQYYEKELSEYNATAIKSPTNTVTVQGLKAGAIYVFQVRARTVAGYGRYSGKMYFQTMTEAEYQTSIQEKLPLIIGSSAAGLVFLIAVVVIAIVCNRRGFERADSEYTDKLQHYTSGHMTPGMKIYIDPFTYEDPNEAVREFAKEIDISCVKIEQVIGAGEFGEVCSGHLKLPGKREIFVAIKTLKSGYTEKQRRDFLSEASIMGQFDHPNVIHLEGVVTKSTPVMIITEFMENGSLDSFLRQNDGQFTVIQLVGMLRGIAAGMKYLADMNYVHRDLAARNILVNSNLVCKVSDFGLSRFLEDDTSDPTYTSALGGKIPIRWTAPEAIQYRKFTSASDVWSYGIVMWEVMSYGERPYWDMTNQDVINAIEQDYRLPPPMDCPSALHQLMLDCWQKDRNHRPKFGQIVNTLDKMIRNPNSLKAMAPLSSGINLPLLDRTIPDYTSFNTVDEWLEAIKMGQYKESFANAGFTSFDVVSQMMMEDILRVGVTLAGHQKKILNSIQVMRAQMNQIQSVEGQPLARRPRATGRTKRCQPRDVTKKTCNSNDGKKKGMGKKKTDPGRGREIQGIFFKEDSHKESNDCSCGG
Sequence of FGFR3 (P22607 whole entry, looked up): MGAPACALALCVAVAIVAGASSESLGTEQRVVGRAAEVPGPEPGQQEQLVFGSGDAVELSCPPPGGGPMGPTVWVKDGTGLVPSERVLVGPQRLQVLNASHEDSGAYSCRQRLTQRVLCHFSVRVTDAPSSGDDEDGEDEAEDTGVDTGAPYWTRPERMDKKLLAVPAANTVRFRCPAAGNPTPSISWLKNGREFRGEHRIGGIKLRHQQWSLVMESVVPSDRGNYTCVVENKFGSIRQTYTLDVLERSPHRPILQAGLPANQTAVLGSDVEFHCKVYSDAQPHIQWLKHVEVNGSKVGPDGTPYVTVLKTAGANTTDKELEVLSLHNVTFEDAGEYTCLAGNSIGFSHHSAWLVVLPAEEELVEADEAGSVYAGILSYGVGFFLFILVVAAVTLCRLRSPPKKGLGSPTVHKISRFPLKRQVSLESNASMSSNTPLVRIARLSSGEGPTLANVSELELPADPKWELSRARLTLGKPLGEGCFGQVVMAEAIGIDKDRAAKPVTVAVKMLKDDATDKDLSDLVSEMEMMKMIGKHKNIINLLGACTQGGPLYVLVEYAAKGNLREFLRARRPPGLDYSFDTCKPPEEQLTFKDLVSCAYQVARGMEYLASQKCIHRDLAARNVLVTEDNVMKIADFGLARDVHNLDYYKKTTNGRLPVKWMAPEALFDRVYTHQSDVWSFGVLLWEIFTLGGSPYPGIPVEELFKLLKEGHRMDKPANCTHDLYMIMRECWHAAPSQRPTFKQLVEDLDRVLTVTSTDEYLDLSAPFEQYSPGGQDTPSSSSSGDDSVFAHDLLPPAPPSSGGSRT
Sequence of FGFR1 (P11362 whole entry, looked up): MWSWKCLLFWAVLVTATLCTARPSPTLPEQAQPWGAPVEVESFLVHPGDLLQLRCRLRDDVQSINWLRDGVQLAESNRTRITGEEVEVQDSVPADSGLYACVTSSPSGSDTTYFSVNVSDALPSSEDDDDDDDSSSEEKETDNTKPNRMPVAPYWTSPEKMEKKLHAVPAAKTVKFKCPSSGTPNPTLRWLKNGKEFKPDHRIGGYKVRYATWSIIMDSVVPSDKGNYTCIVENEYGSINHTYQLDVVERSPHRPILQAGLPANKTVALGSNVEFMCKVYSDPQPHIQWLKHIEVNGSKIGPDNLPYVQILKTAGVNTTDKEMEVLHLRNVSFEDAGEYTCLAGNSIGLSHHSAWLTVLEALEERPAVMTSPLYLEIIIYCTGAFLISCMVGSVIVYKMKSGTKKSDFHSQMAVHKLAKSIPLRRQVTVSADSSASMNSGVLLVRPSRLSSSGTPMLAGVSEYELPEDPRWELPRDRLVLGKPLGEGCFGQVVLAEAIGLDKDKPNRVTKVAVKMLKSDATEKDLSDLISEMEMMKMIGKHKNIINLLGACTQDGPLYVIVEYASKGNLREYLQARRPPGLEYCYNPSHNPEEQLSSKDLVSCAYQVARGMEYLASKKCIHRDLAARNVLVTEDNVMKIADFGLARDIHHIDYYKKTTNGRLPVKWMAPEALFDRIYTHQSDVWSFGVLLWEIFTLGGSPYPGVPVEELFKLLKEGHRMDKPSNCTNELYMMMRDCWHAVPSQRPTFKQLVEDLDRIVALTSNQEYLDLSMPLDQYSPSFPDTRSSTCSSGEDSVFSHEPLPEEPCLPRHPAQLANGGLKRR
Sequence of Fes (P07332 whole entry, looked up): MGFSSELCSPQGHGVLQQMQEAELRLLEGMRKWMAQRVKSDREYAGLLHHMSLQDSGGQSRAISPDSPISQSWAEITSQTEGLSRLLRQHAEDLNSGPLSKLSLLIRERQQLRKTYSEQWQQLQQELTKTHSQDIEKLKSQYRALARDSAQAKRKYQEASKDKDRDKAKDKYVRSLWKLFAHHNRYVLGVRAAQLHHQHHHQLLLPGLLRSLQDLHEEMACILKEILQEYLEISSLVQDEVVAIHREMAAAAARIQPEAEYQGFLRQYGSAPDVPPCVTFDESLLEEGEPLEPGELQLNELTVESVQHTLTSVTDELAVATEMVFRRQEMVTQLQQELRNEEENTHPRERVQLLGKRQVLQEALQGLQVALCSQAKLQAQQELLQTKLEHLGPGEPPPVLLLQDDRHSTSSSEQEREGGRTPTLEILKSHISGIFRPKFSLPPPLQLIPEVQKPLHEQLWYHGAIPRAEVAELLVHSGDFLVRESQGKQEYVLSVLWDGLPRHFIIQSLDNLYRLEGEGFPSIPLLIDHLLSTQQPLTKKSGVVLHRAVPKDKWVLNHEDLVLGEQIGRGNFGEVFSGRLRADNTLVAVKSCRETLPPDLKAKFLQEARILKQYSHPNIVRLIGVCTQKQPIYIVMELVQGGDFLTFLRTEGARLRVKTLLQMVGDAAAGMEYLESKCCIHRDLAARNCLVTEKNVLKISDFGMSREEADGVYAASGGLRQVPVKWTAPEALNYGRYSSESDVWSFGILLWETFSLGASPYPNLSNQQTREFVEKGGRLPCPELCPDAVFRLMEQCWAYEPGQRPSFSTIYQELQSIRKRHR
Sequence of EPHB1 (P54762 whole entry, looked up): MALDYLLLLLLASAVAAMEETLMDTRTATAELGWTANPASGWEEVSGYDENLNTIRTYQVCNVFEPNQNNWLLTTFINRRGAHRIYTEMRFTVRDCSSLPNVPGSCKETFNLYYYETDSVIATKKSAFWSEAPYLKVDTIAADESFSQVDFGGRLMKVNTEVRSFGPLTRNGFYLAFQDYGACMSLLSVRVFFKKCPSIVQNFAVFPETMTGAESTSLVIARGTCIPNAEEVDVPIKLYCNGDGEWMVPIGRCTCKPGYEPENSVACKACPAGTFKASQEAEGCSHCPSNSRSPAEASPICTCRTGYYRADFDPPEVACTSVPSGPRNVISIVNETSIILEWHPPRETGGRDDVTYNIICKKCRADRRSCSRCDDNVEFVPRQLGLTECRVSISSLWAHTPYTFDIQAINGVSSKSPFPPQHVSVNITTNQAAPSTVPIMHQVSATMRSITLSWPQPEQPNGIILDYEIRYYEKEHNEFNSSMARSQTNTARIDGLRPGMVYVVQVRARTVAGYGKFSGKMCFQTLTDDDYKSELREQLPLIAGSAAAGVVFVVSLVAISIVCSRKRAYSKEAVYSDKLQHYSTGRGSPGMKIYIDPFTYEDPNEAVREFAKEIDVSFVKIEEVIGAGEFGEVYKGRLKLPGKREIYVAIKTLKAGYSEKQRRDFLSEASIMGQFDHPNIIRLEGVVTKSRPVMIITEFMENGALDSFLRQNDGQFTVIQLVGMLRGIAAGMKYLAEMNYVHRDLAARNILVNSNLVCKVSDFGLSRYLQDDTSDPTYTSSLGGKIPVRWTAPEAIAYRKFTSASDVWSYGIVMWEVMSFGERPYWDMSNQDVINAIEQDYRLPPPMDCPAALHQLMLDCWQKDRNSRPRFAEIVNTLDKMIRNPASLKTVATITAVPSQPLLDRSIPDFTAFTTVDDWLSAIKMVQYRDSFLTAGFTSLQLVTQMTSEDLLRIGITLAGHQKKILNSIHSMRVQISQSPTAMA
Sequence of Hck (P08631 whole entry, looked up): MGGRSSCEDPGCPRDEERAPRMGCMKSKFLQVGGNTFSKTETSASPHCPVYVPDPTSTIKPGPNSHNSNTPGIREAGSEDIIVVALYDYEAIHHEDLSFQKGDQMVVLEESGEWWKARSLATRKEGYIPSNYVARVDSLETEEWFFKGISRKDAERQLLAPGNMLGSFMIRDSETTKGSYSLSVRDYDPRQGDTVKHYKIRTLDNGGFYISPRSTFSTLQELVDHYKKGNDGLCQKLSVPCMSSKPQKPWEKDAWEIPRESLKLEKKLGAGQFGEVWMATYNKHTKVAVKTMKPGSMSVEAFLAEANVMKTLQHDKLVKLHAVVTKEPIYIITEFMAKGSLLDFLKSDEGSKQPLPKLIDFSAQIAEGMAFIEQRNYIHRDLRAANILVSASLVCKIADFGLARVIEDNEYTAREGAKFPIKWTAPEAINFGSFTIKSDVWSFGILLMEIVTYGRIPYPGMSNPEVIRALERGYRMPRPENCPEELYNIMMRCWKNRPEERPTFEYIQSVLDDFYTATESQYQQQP

Row | SH2 binding enrichment [14] | SH2 binding enrichment [15] | SH2 binding enrichment [16] | Sequence | phosphorylation enrichment [1] | phosphorylation enrichment [2] | phosphorylation enrichment [3] | phosphorylation enrichment [4] | phosphorylation enrichment [5] | phosphorylation enrichment [6] | phosphorylation enrichment [7] | phosphorylation enrichment [8] | phosphorylation enrichment [9] | phosphorylation enrichment [10] | phosphorylation enrichment [11] | phosphorylation enrichment [12] | phosphorylation enrichment [13]
1 | 0.603 | 0.876 | 0.624 | QFQEKYKQVEQ [HCN4_Y531_YF] | 0.559 | 0.913 | 2.09 | 0.882 | 1.29 | 0.663 | 0.95 | 1.27 | 0.679 | 0.706 | 0.564 | 0.699 | 0.63
2 | 0.556 | 0.682 | 0.888 | CRIELYRIVES [IGFBP1_Y181_V183I] | 0.451 | 0.991 | 1.28 | 0.548 | 1.49 | 1.82 | 0.616 | 1.21 | 0.53 | 0.837 | 0.455 | 0.422 | 0.579
3 | 0.88 | 1.1 | 1.05 | TKLKDYYIFNK [CCDC42_Y149_A144T] | 1.28 | 0.736 | 1.49 | 0.752 | 0.91 | 0.811 | 0.691 | 1.02 | 1.37 | 3.16 | 0.579 | 4.92 | 0.538
4 | 0.386 | 1.17 | 0.812 | LAAAKYKLNVD [SMARCA2_Y1190] | 0.309 | 0.593 | 0.42 | 0.181 | 0.766 | 0.426 | 0.336 | 0.444 | 0.489 | 0.556 | 0.262 | 0.322 | 0.52
5 | 0.557 | 0.934 | 0.895 | PELINYHQHFS [BTK_Y361_N365Y_YF] | 0.401 | 0.711 | 0.869 | 0.513 | 0.869 | 0.723 | 0.44 | 0.508 | 0.38 | 0.799 | 0.547 | 0.591 | 0.366
6 | 0.563 | 0.812 | 0.969 | FDNPVCQKTTE [LDLR_Y828_Y828C] | 0.477 | 0.877 | 0.875 | 0.603 | 1.18 | 0.485 | 0.653 | 1.1 | 0.523 | 0.774 | 0.573 | 0.57 | 0.528
7 | 1.73 | 2.86 | 1.38 | LAGRYYALRSM [CKB_Y174_K177R] | 3.63 | 0.684 | 1.66 | 0.708 | 0.79 | 0.701 | 0.688 | 0.807 | 0.581 | 0.763 | 0.524 | 0.751 | 0.5
8 | 0.645 | 0.616 | 0.848 | SSMNDYNPLEK [MYOC_Y479_I477N] | 0.614 | 0.625 | 1.07 | 0.479 | 0.977 | 0.422 | 0.454 | 0.797 | 0.502 | 0.578 | 0.4 | 0.456 | 0.397
9 | 0.548 | 0.775 | 0.795 | QTLTDYDIRFY [CSNK2A1_Y131] | 0.484 | 0.913 | 1.18 | 0.526 | 1.27 | 0.825 | 0.72 | 1.27 | 0.603 | 0.84 | 0.552 | 0.62 | 0.586
10 | 0.606 | 0.674 | 0.811 | GARGRYIMGGP [TNK1_Y277_V278I] | 0.468 | 0.512 | 0.531 | 0.428 | 0.547 | 0.39 | 0.462 | 0.433 | 0.522 | 0.4 | 0.433 | 0.789 | 0.4
11 | 0.476 | 0.64 | 0.908 | GLDSSYLLRDS [SH2D1A_Y29_G27S] | 0.422 | 0.434 | 0.464 | 0.323 | 0.612 | 0.343 | 0.36 | 0.477 | 0.386 | 0.426 | 0.386 | 0.613 | 0.305
12 | 0.52 | 0.606 | 0.85 | VTAALYGCLFE [BTD_Y536_R538C_YF] | 1.54 | 1.02 | 1.13 | 3.97 | 1.55 | 0.916 | 1.03 | 1.3 | 4.03 | 0.998 | 5.63 | 0.602 | 1.1
13 | 3.29 | 2.81 | 1.61 | PSQRPYVYYYS [PTEN_Y174_R173P] | 7.73 | 1 | 2.58 | 1.02 | 1.09 | 0.652 | 0.676 | 1.44 | 2.78 | 3.08 | 1.43 | 4.69 | 0.64
14 | 0.697 | 1.09 | 1.18 | KDHLDYKYQPR [SOX9_Y172_P170L] | 0.418 | 0.451 | 0.452 | 0.415 | 0.704 | 0.419 | 0.448 | 0.585 | 0.433 | 0.629 | 0.441 | 0.462 | 0.445
15 | 0.367 | 0.653 | 0.908 | QEGPEYWDGNT [HLA-B_Y83_R86G] | 0.709 | 1.08 | 1.98 | 0.833 | 1.97 | 0.762 | 0.959 | 1.93 | 0.854 | 1.56 | 0.548 | 1.11 | 0.533

Row | Sequence | SH2 binding enrichment [14] | SH2 binding enrichment [15] | SH2 binding enrichment [16] | phosphorylation enrichment [1] | phosphorylation enrichment [2] | phosphorylation enrichment [3] | phosphorylation enrichment [4] | phosphorylation enrichment [5] | phosphorylation enrichment [6] | phosphorylation enrichment [7] | phosphorylation enrichment [8] | phosphorylation enrichment [9] | phosphorylation enrichment [10] | phosphorylation enrichment [11] | phosphorylation enrichment [12] | phosphorylation enrichment [13]
16 | ETEMLYGSAPR [PRC1_Y464] | 0.437 | 0.686 | 0.784 | 0.414 | 0.716 | 0.556 | 6.51 | 0.805 | 0.433 | 0.513 | 0.889 | 5.25 | 0.557 | 6.44 | 0.474 | 6.32
